Measured values taken from patent publication US20250206828A1, “ANTI-ADENOSINE RECEPTOR (A2aR) ANTIBODIES AND THE USE THEREOF” (Adept Therapeutics Inc., priority 2022, published 2025).

Biological target: human A2aR (Homo sapiens, UniProt P29274)
Assay: Binding of humanized anti-A2aR antibodies in transfected Expi293F cell supernatant to human A2aR on HEK293 cells (FACS, MFI)
Details: supernatant normalized to 1 μg/ml antibody; HEK293 cells stably overexpressing human A2aR; greater MFI = stronger binding; parental value average of triplicate
Method: Briefly, HEK293 cells that stably overexpress human A2aR (HEK-hA2aR OCL, BPS Bioscience, Cat. 79381) were collected from fresh culture. Cells were then resuspended in FACS buffer (1×DPBS/1% FBS) at 10^6/ml concentration. One hundred microliters (100 μl) of cells were aliquoted into each well of a 96 well plates. After centrifugation, cell pellets in each well were then resuspended with 100 μl normalized supernatant samples containing 1 μg/ml humanized anti-A2aR monoclonal antibody variants collected from transfected Expi293 cell culture. The supernatants were mixed with the cells and incubated on ice for 1 hours. After washing the mixtures of the supernatants containing expressed antibodies and the A2aR-expressing cells with FACS buffer, one hundred microliters (100 μl) of 1:400 diluted PE-conjugated anti-human Fc secondary antibody (Jackson Immuno Research, Cat. 109-116-098) was added to each well followed by an incubation for 30 minutes on ice. After washes with FACS buffer, stained cells were resuspended in 150 μl of 7-AAD (Biolegend, Cat. 420404) diluted 1:100 in 1×DPBS buffer and incubate for 5 minutes in the dark at room temperature before FACS analysis. The mean fluorescence intensity (MFI) was obtained using Guava 11HT or 5HT (Luminex). Data was analyzed using Flowjo software.
As shown in Tables 22-24, exemplary humanized anti-A2aR antibodies bind to A2aR expressed on a cell surface. A greater MFI value means stronger binding of the exemplary antibody to A2aR expressed on a cell surface.

human A2aR, sequence (P29274 whole entry): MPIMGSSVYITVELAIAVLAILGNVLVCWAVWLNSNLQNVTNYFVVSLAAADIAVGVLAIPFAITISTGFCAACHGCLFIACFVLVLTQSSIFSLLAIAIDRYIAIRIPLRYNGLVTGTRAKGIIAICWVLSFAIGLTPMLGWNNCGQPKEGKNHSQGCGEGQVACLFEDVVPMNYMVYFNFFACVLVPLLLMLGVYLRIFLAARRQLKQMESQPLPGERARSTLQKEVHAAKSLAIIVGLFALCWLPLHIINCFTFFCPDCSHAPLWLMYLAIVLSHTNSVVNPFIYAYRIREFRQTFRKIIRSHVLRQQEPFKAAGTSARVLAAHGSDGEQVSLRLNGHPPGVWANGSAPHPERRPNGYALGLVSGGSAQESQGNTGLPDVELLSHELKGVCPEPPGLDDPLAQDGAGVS

binding to human A2aR on cell surface, mean fluorescence intensity (MFI)	Molecule
152	Hu1B5-H3/Hu1B5-L1: humanized anti-A2aR IgG1 FES antibody; HCVR SEQ ID NO:54, LCVR SEQ ID NO:71 (antibody, V domains shown, IgG1 FES constant regions) VH: EVQLVQSGAEVKKPGASVKVSCKTSGFTFTRFWMNWVRQAPGQGLEWIGRIDPYDSETQYNHKFWDRATLTVDTSSSTVYMELSSLRSEDTAVYYCGRSLYGKGDYWGQGTTVTVSS VL: DVVMTQSPLSLPVTLGQPASISCRSSQSIVHSNGNTYLEWFQQRPGQSPRRLIYKVSNRFSGVPDRFSGSGSGTDFTLKISRVEAEDVGVYYCFQGSHVPLTFGGGTKVEIK
82	Hu1B5-H5/Hu1B5-L1: humanized anti-A2aR IgG1 FES antibody; HCVR SEQ ID NO:56, LCVR SEQ ID NO:71 (antibody, V domains shown, IgG1 FES constant regions) VH: EVQLVQSGAEVKKPGASVKVSCKTSGFTFTRFWMNWVRQAPGQGLEWIGRIDPYDSETQYAHKFWDRATLTVDKSSSTVYMELSSLRSEDTAVYYCGRSLYGKGDYWGQGTTVTVSS VL: DVVMTQSPLSLPVTLGQPASISCRSSQSIVHSNGNTYLEWFQQRPGQSPRRLIYKVSNRFSGVPDRFSGSGSGTDFTLKISRVEAEDVGVYYCFQGSHVPLTFGGGTKVEIK
62	Hu1B5-H1/Hu1B5-L2: humanized anti-A2aR IgG1 FES antibody; HCVR SEQ ID NO:51, LCVR SEQ ID NO:72 (antibody, V domains shown) VH: QVQLVQSGAEVKKPGASVKVSCKASGFTFTRFWMNWVRQAPGQGLEWMGRIDPYDSETQYNHKFWDRVTMTRDTSTSTVYMELSSLRSEDTAVYYCGRSLYGKGDYWGQGTTVTVSS VL: DVVMTQSPLSLPVTLGQPASISCRSSQSIVHSNGNTYLEWYQQRPGQSPRRLIYKVSNRFSGVPDRFSGSGSGTDFTLKISRVEAEDVGVYYCFQGSHVPLTFGGGTKVEIK
182	Hu1B5-H4/Hu1B5-L1: humanized anti-A2aR IgG1 FES antibody; HCVR SEQ ID NO:55, LCVR SEQ ID NO:71 (antibody, V domains shown, IgG1 FES constant regions) VH: EVQLVQSGAEVKKPGASVKVSCKTSGFTFTRFWMNWVRQAPGQGLEWIGRIDPYDSETQYNHKFWDRATLTVDKSSSTVYMELSSLRSEDTAVYYCGRSLYGKGDYWGQGTTVTVSS VL: DVVMTQSPLSLPVTLGQPASISCRSSQSIVHSNGNTYLEWFQQRPGQSPRRLIYKVSNRFSGVPDRFSGSGSGTDFTLKISRVEAEDVGVYYCFQGSHVPLTFGGGTKVEIK
178	Hu1B5-H6/Hu1B5-L1: humanized anti-A2aR IgG1 FES antibody; HCVR SEQ ID NO:57, LCVR SEQ ID NO:71 (antibody, V domains shown, IgG1 FES constant regions) VH: EVQLVQSGAEVKKPGESLRISCKTSGFTFTRFWMNWVRQMPGKGLEWIGRIDPYDSETQYNHKFWDHATLSVDKSSSTVYLQWSSLKASDTAMYYCGRSLYGKGDYWGQGTTVTVSS VL: DVVMTQSPLSLPVTLGQPASISCRSSQSIVHSNGNTYLEWFQQRPGQSPRRLIYKVSNRFSGVPDRFSGSGSGTDFTLKISRVEAEDVGVYYCFQGSHVPLTFGGGTKVEIK
145	Hu1B5-H2.1/Hu1B5-L1: humanized anti-A2aR IgG1 FES antibody; HCVR SEQ ID NO:53, LCVR SEQ ID NO:71 (antibody, V domains shown) VH: EVQLVQSGAEVKKPGASVKVSCKTSGFTFTRFWMNWVRQAPGQGLEWIGRIDPYDSETQYNHKFWDRVTMTVDTSTSTVYMELSSLRSEDTAVYYCGRSLYGKGDYWGQGTTVTVSS VL: DVVMTQSPLSLPVTLGQPASISCRSSQSIVHSNGNTYLEWFQQRPGQSPRRLIYKVSNRFSGVPDRFSGSGSGTDFTLKISRVEAEDVGVYYCFQGSHVPLTFGGGTKVEIK
165	Hu1B5-H2/Hu1B5-L1: humanized anti-A2aR IgG1 FES antibody; HCVR SEQ ID NO:52, LCVR SEQ ID NO:71 (antibody, V domains shown, IgG1 FES constant regions) VH: EVQLVQSGAEVKKPGASVKVSCKTSGFTFTRFWMNWVRQAPGQGLEWMGRIDPYDSETQYNHKFWDRVTMTVDTSTSTVYMELSSLRSEDTAVYYCGRSLYGKGDYWGQGTTVTVSS VL: DVVMTQSPLSLPVTLGQPASISCRSSQSIVHSNGNTYLEWFQQRPGQSPRRLIYKVSNRFSGVPDRFSGSGSGTDFTLKISRVEAEDVGVYYCFQGSHVPLTFGGGTKVEIK

Same assay, conditions: supernatant with 1 μg/ml antibody; HEK293 overexpressing human A2aR; heavy chain (row) x light chain

MFI, binding to human A2aR on cell surface (3F6-9G5 derived)	MFI, binding to human A2aR on cell surface (3F8-12E9 derived)	Molecule
21	–	Hu3F6-H4/Hu3F6-L1: humanized anti-A2aR IgG1 FES antibody; HCVR SEQ ID NO:61, LCVR SEQ ID NO:76 (antibody, V domains shown) VH: EVQLVQSGAEVKKPGASVKVSCKTSGFAFTSYWMNWVRQAPGQGLEWIGRIDPSDSEAHYHHKFWGRATLTVDKSSSTVYMELSSLRSEDTAVYYCLRSLYGKGDYWGHGTTVTVSS VL: DVVMTQSPLSLPVTLGQPASISCRSSQSLVHRNGNTYLEWFQQRPGQSPRRLIYKVSNRFSGVPDRFSGSGSGTDFTLKISRVEAEDVGVYYCYQGSHVPLTFGGGTKVEIK
–	110	Hu3F8-H4/Hu3F8-L1: humanized anti-A2aR IgG1 FES antibody; HCVR SEQ ID NO:67, LCVR SEQ ID NO:84 (antibody, V domains shown) VH: EVQLVQSGAEVKKPGASVKVSCKASGFTFTRYWMNWVRQAPGQGLEWIGRIDPSDSETHYNHKFWGRATLTVDKSTSTVYMELSSLRSEDTAVYYCLRSLYGKGDYWGQGTTVTVSS VL: DVVMTQSPLSLPVTLGQPASISCRSSQSIVHSNGNTYLEWFQQRPGQSPRRLIYKVSNRFSGVPDRFSGSGSGTDFTLKISRVEAEDVGVYYCYQGSHVPLTFGGGTKVEIK
12	–	Hu3F6-H3/Hu3F6-L1: humanized anti-A2aR IgG1 FES antibody; HCVR SEQ ID NO:60, LCVR SEQ ID NO:76 (antibody, V domains shown) VH: EVQLVQSGAEVKKPGASVKVSCKTSGFAFTSYWMNWVRQAPGQGLEWIGRIDPSDSEAHYHHKFWGRATLTVDTSSSTVYMELSSLRSEDTAVYYCLRSLYGKGDYWGHGTTVTVSS VL: DVVMTQSPLSLPVTLGQPASISCRSSQSLVHRNGNTYLEWFQQRPGQSPRRLIYKVSNRFSGVPDRFSGSGSGTDFTLKISRVEAEDVGVYYCYQGSHVPLTFGGGTKVEIK
146	–	Hu3F6-H2/Hu3F6-L2: humanized anti-A2aR IgG1 FES antibody; HCVR SEQ ID NO:59, LCVR SEQ ID NO:77 (antibody, V domains shown, IgG1 FES constant regions) VH: EVQLVQSGAEVKKPGASVKVSCKTSGFAFTSYWMNWVRQAPGQGLEWMGRIDPSDSEAHYHHKFWGRVTMTVDTSTSTVYMELSSLRSEDTAVYYCLRSLYGKGDYWGHGTTVTVSS VL: DVVMTQSPLSLPVTLGQPASISCRSSQSLVHRNGNTYLEWYQQRPGQSPRRLIYKVSNRFSGVPDRFSGSGSGTDFTLKISRVEAEDVGVYYCYQGSHVPLTFGGGTKVEIK
191	–	Hu3F6-H5/Hu3F6-L2: humanized anti-A2aR IgG1 FES antibody; HCVR SEQ ID NO:62, LCVR SEQ ID NO:77 (antibody, V domains shown) VH: EVQLVQSGAEVKKPGASVKVSCKTSGFAFTSYWMNWVRQAPGQGLEWIGRIDPSDSEAHYAHKFWGRATLTVDKSSSTVYMELSSLRSEDTAVYYCLRSLYGKGDYWGHGTTVTVSS VL: DVVMTQSPLSLPVTLGQPASISCRSSQSLVHRNGNTYLEWYQQRPGQSPRRLIYKVSNRFSGVPDRFSGSGSGTDFTLKISRVEAEDVGVYYCYQGSHVPLTFGGGTKVEIK
200	–	Hu3F6-H3/Hu3F6-L2: humanized anti-A2aR IgG1 FES antibody; HCVR SEQ ID NO:60, LCVR SEQ ID NO:77 (antibody, V domains shown) VH: EVQLVQSGAEVKKPGASVKVSCKTSGFAFTSYWMNWVRQAPGQGLEWIGRIDPSDSEAHYHHKFWGRATLTVDTSSSTVYMELSSLRSEDTAVYYCLRSLYGKGDYWGHGTTVTVSS VL: DVVMTQSPLSLPVTLGQPASISCRSSQSLVHRNGNTYLEWYQQRPGQSPRRLIYKVSNRFSGVPDRFSGSGSGTDFTLKISRVEAEDVGVYYCYQGSHVPLTFGGGTKVEIK
25	–	Hu3F6-H5/Hu3F6-L1: humanized anti-A2aR IgG1 FES antibody; HCVR SEQ ID NO:62, LCVR SEQ ID NO:76 (antibody, V domains shown) VH: EVQLVQSGAEVKKPGASVKVSCKTSGFAFTSYWMNWVRQAPGQGLEWIGRIDPSDSEAHYAHKFWGRATLTVDKSSSTVYMELSSLRSEDTAVYYCLRSLYGKGDYWGHGTTVTVSS VL: DVVMTQSPLSLPVTLGQPASISCRSSQSLVHRNGNTYLEWFQQRPGQSPRRLIYKVSNRFSGVPDRFSGSGSGTDFTLKISRVEAEDVGVYYCYQGSHVPLTFGGGTKVEIK
